Experimental data taken from paper PMC9352680, “A comprehensive thermodynamic model for RNA binding by the Saccharomyces cerevisiae Pumilio protein PUF4”.

T1: PUF4 RNA-binding domain (Saccharomyces cerevisiae, UniProt P25339 537-888)
T1 sequence: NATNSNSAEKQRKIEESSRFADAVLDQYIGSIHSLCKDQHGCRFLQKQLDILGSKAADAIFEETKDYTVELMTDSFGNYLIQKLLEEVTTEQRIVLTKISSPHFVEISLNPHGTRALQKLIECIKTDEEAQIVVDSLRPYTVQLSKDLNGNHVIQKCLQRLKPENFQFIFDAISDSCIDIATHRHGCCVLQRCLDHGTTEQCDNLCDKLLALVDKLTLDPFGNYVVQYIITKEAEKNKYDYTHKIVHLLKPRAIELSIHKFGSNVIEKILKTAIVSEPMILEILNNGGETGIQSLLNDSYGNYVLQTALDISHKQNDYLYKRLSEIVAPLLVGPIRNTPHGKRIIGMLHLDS


Target: T1, PUF4 RNA-binding domain
Test: Mg; RNA-MaP; 20 mM Na-HEPES pH 7.4, 30 mM KOAc, 0.75 mM MgCl2, 0.1% Tween-20, 5% glycerol, 0.1 mg/mL BSA, 2 mM DTT; 25 C; 0.0125-409.6 nM protein
Details: tags: N-His6-TEV cleaved; C-SNAP kept, Cy3B-labelled; label: tethered on chip by stalled RNA polymerase

Binder	Kd
UCUCUUUCUGUAUAUAGCUCUCUU (ssRNA) [Id_ii_S1_P3E.2_K3.1_C3.2_[C-2T]_[T-1C]_H3.1_A3.1_F3.1_T3.2_[T9G]_[A10C]]	3.8 nM
UCUCUUUAAAUAUUAUCUCUU (ssRNA) [Ib_S1_P4E.1_K4.1_C4.1_H4.1_[G2A]_[T3A]_A4.1_F4.1_T4.1]	> 2300 nM
UCUCUUUCUGUAUAUAGUUCUCUU (ssRNA) [Id_ii_S1_P3E.2_K3.1_C3.2_[C-2T]_[T-1C]_H3.1_A3.1_F3.1_T3.2_[T9G]_[A10T]]	3.7 nM
UCUCUUUAUGUAUAUACUUCUCUU (ssRNA) [Id_ii_S1_P3E.2_K3.1_C3.2_[C-2T]_[T-1A]_H3.1_A3.1_F3.1_T3.2_[T9C]_[A10T]]	15.1 nM
UCUCUUUCUGUAUAUAUCUCUCUU (ssRNA) [Id_ii_S1_P3E.2_K3.1_C3.2_[C-2T]_[T-1C]_H3.1_A3.1_F3.1_T3.2_[A10C]]	5.38 nM
UCUCUUUGUGUAUAUAUUUCUCUU (ssRNA) [Id_ii_S1_P3E.2_K3.1_C3.2_[C-2T]_[T-1G]_H3.1_A3.1_F3.1_T3.2_[A10T]]	8.9 nM
UCUCUUUUUGUAUAUAGGUCUCUU (ssRNA) [Id_ii_S1_P3E.2_K3.1_C3.2_[C-2T]_H3.1_A3.1_F3.1_T3.2_[T9G]_[A10G]]	10.7 nM
UCUCUUUCUGUAUAUAAGUCUCUU (ssRNA) [Id_ii_S1_P3E.2_K3.1_C3.2_[C-2T]_[T-1C]_H3.1_A3.1_F3.1_T3.2_[T9A]_[A10G]]	6.84 nM
UCUCUUUCUGUAUAUAAAUCUCUU (ssRNA) [Id_ii_S1_P3E.2_K3.1_C3.2_[C-2T]_[T-1C]_H3.1_A3.1_F3.1_T3.2_[T9A]]	8.49 nM
UCUCUUUUUGUAUAUAGCUCUCUU (ssRNA) [Id_ii_S1_P3E.2_K3.1_C3.2_[C-2T]_H3.1_A3.1_F3.1_T3.2_[T9G]_[A10C]]	5.32 nM
UCUCUUUCUGUAUAUAUUUCUCUU (ssRNA) [Id_ii_S1_P3E.2_K3.1_C3.2_[C-2T]_[T-1C]_H3.1_A3.1_F3.1_T3.2_[A10T]]	5.64 nM
UCUCUUUCUGUAUAUACAUCUCUU (ssRNA) [Id_ii_S1_P3E.2_K3.1_C3.2_[C-2T]_[T-1C]_H3.1_A3.1_F3.1_T3.2_[T9C]]	23 nM
UCUCUUUGUGUAUAUAUCUCUCUU (ssRNA) [Id_ii_S1_P3E.2_K3.1_C3.2_[C-2T]_[T-1G]_H3.1_A3.1_F3.1_T3.2_[A10C]]	7.14 nM
UCUCUUUAUGUAUAUAUCUCUCUU (ssRNA) [Id_ii_S1_P3E.2_K3.1_C3.2_[C-2T]_[T-1A]_H3.1_A3.1_F3.1_T3.2_[A10C]]	9.65 nM
UCUCUUUGUGUAUAUAUGUCUCUU (ssRNA) [Id_ii_S1_P3E.2_K3.1_C3.2_[C-2T]_[T-1G]_H3.1_A3.1_F3.1_T3.2_[A10G]]	8.9 nM
UCUCUUUCUGUAUAUAACUCUCUU (ssRNA) [Id_ii_S1_P3E.2_K3.1_C3.2_[C-2T]_[T-1C]_H3.1_A3.1_F3.1_T3.2_[T9A]_[A10C]]	5.55 nM
UCUCUUUCUGUAUAUAAUUCUCUU (ssRNA) [Id_ii_S1_P3E.2_K3.1_C3.2_[C-2T]_[T-1C]_H3.1_A3.1_F3.1_T3.2_[T9A]_[A10T]]	4.37 nM
UCUCUUUCUGUAUAUACGUCUCUU (ssRNA) [Id_ii_S1_P3E.2_K3.1_C3.2_[C-2T]_[T-1C]_H3.1_A3.1_F3.1_T3.2_[T9C]_[A10G]]	17.9 nM
UCUCUUUAUGUAUAUACCUCUCUU (ssRNA) [Id_ii_S1_P3E.2_K3.1_C3.2_[C-2T]_[T-1A]_H3.1_A3.1_F3.1_T3.2_[T9C]_[A10C]]	15.5 nM
UCUCUUUAUGUAUAUAUUUCUCUU (ssRNA) [Id_ii_S1_P3E.2_K3.1_C3.2_[C-2T]_[T-1A]_H3.1_A3.1_F3.1_T3.2_[A10T]]	9.19 nM
UCUCUUUCUGUAUAUACUUCUCUU (ssRNA) [Id_ii_S1_P3E.2_K3.1_C3.2_[C-2T]_[T-1C]_H3.1_A3.1_F3.1_T3.2_[T9C]_[A10T]]	9.31 nM
UCUCUUUAUGUAUAUAGCUCUCUU (ssRNA) [Id_ii_S1_P3E.2_K3.1_C3.2_[C-2T]_[T-1A]_H3.1_A3.1_F3.1_T3.2_[T9G]_[A10C]]	6.81 nM
UCUCUUUAUGUAUAUAGUUCUCUU (ssRNA) [Id_ii_S1_P3E.2_K3.1_C3.2_[C-2T]_[T-1A]_H3.1_A3.1_F3.1_T3.2_[T9G]_[A10T]]	6.42 nM
UCUCUUUGUGUAUAUAAUUCUCUU (ssRNA) [Id_ii_S1_P3E.2_K3.1_C3.2_[C-2T]_[T-1G]_H3.1_A3.1_F3.1_T3.2_[T9A]_[A10T]]	9.46 nM
UCUCUUUUCAUAUUAUCUCUU (ssRNA) [Ib_S1_P4E.1_K4.1_C4.1_H4.1_[G2T]_[T3C]_A4.1_F4.1_T4.1]	> 2300 nM
UCUCUUUAUGUAUAUAUGUCUCUU (ssRNA) [Id_ii_S1_P3E.2_K3.1_C3.2_[C-2T]_[T-1A]_H3.1_A3.1_F3.1_T3.2_[A10G]]	9.53 nM
UCUCUUUAUGUAUAUAACUCUCUU (ssRNA) [Id_ii_S1_P3E.2_K3.1_C3.2_[C-2T]_[T-1A]_H3.1_A3.1_F3.1_T3.2_[T9A]_[A10C]]	13 nM
